Measured values: a protein production outcome set (Wang et al. 2014)

Experiment: label from the status in PepcDB records
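Further: failed if final PepcDB status was selected cloned or expressed and not failed if soluble or beyond.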

Sequence | protein production
MVFPSEQEQIEKFEKDHVAQHYFEVLRTLISKKSVFAQQVGLKEVANYLGEIFKRVGAEVEIDESYTAPFVMAHFKSSRPDAKTLIFYNHYDTVPADGDQVWTEDPFTLSVRNGFMYGRGVDDDKGHITARLSALRKYMQHHDDLPVNISFIMEGAEESASTDLDKYLEKHADKLRGADLLVWEQGTKNALEQLEISGGNKGIVTFDAKVKSADVDIHSSYGGVVESAPWYLLQALQSLRAADGRILVEGLYEEVQEPNEREMALLETYGQRNPEEVSRIYGLELPLLQEERMAFLKRFFFDPALNIEGIQSGYQGQGVKTILPAEASAKLEVRLVPGLEPHDVLEKIRKQLDKNGFDKVELYYTLGEMSYRSDMSAPAILNVIELAKKFYPQGVSVLPTTAGTGPMHTVFDALEVPMVAFGLGNANSRDHGGDENVRIADYYTHIELVEELIRSYE | not failed
QGKLLELVTFVPTEYADAVRQALWQAGAGRLGHYDCCSFSHAGTGTFRAAEGANPFVGAISELHHEAEERISLVLPAYRQGTVLQALHAAHPYELPAVSLIPLANDHPSAGGGIVGDLPSPISEREMLLHIKEVFGLKVLSHSAWRERPLRRMAICGGSGAFMWRRAAQEGADLFLTGEAKYNDFFDAGEHLLLVTIGHYESEEVANELFMRIISQKFPTFATHKSSVATNPVNYL | failed
MRGVSELEVGKSNLPAESELELGLGLSLGGGAWKERGRILTAKDFPSVGSKRSAESSSHQGASPPRSSQVVGWPPIGLHRMNSLVNNQAMKAARAEEGDGEKKVVKNDELKDVSMKVNPKVQGLGFVKVNMDGVGIGRKVDMRAHSSYENLAQTLEEMFFGMTGTTCREKVKPLRLLDGSSDFVLTYEDKEGDWMLVGDVPWRMFINSVKRLRIMGTSEASGLAPRRQEQKDRQRNNPV | failed
MFSIQQPLLVFSDLDGTLLDSHSYDWQPAAPWLTRLREANVPVILCSSKTSAEMLYLQKTLGLQGLPLIAENGAVIQLAEQWQEIDGFPRIISGISHGEISLVLNTLREKEHFKFTTFDDVDDATIAEWTGLSRSQAALTQLHEASVTLIWRDSDERMAQFTARLNELGLQFMQGARFWHVLDASAGKDQAANWIIATYQQLSGKRPTTLGLGDGPNDAPLLEVMDYAVIVKGLNREGVHLHDEDPARVWRTQREGPEGWREGLDHFFSAR | not failed
MKRYPRDMRGHGPTPPDAAWPGGARIAVSIVLNYEEGGENCLLHGDAQSEAFLSDIAGAQPWPGQRHWNMESIYDYGARAGFWRLHRLFTGLNIPVTVYGVATALARSPEQVAAMKSAGWEIASHGLKWVEHRDMPEEEERRQIAEAIRLHAEVVGERPRGWYTGRCSVNTVRLTAEEGGFDWISDTYDDDQPYWLETGTRDQLVIPYTLEANDMRFATAPGYIEGEQFFTYLRDSFDTLYAEGCAGQAKMFSIGLHCRLIGRPGKIAGLKRFLDYARTHERVWFPCRGDIARHWHETHPHRRRPRPSRMDRESFVAHFGGIYEHSPWIAERAFELELGPAHDSPAGLANALARIFRSATPAERLSVLKAHPDLAGKLAQARRLTASSSFEQSSAGLDALTDAERAEFATLNADYVAKHGFPFIIAVRDHDKAGILAAFETRLAHDSATEFATACRQVERIAELRLQDMLKLEHHHHHH | failed
MADISLDELIRKRGAAAKGRLNARPGVGGVRSRVGIQQGLLSQSTRTATFQQRFDARQKIGLSDARLKLGVKDAREKLLQKDARFRIKGKVQDAREMLNSRKQQTTVPQKPRQVADAREKISLKRSSPAAFINPPIGTVTPALKLTKTIQNLYDLDEDDDGIASVPTKQMKFAASGGFLHHMAGLSSSKLSMSKALPLTKVVQNDAYTAPALPSSIRTKALPVLTSPGT | not failed
MRKIVLFGDSITAGYLDEAVSPVLVDLVKRDIAAMGLEEVAVINAGMPGDTTEDGLKRLNKEVLIEKPDEVVIFFGANDASLDRNITVATFRENLETMIHEIGSEKVILITPPYADSGRRPERPQTRIKELVKVAQEVGAAHNLPVIDLYKAMTVYPGTDEFLQADGLHFSQVGYELLGALIVREIKGRLKPKQA | not failed
MTGKKTLSIVGASGYAGGEFLRLALSHPYLEVKQVTSRRFAGEPVHFVHPNLRGRTNLKFVPPEKLEPADILVLALPHGVFAREFDRYSALAPVLVDLSADFRLKDPELYRRYYGEHPRPDLLGRFVYAVPELYREALKGADWIAGAGCNATATLLGLYPLLKAGVLKPTPIFVTLLISTSAGGAEASPASHHPERAGSIRVYKPTGHRHTAEVVENLPGRPEVHLTAIATDRVRGILMTAQCFVQDGWSERDVWQAYREAYAGEPFIRLVKQKKGVHRYPDPRFVQGTNYADIGFELEEDTGRLVVMTAIDNLVKGTAGHALQALNVRMGWPETLGLDFPGLHP | not failed
MGRKNSPSERERELQNLIAQYEAVKAKNESLYLDGDQLADIADLYASERKFKEAQEVITYGLGLHPGHTDLMVEQAYLFLDLNQPQKAKEVAELITDTYSSNVKLLLAELLLNEGKLDAADQMLDSIEEEEKNDLGILVDIVYLYTDLGYPEKGVQWLKRGAEMYKDDEDFLAATADCYGAAGAEYIEQAIVVFNKLIDKNPYNPAYWVGLAKCQFATKDFDKAIESCDFAIAADEEFGEAHIIKAHSLFHLENIEGAIVEYRKALKYKTLSPEFTYMFIGLAYTQQENWAEANESYSMALRAIEENGNGSSPLLSDIYSNKALCASRQGDSEEAHRLCRLAKELAPQDAEPYLLEGRIYMEEDNFDLARAEWALALRYAPEADTWMEIGNYSLEFRMLENARFCFEQVLEEDPEYPKICEQLAAVCLVLQDHEGFKKYNAMSGDSINLDSLRDTILEMGVDGEQMLRELDDFLKDEK | failed
MSDVPHLRFPEFSGEWEEHTLSEYLEFKNGLNPDAKRIGSGLPFISVMDILSEGVINYDNIRGKVNATEKEIECFGVKDGDLLFQRSSETLEDVGRANVYMDNRTAIYGGFVIRGRKIGNYDPLFFKYLLATPLARKRTCRMGAGAQHFNIGQEGLSKISLYFPSIEEQRKIAEFLSLIDERIATQNKIIEDLKKLKSAISLNVLHSDKWEQFKIKDIAQIGRGRVISSIEIGQQKSPTYPVYSSQTSNDGIMGYLDDYMFEGEYISWTTDGANAGTVFYRNGKFNCTNVCGLLKLRKEFDTHFVSLVLAEATKKYVSINLANPKLMNNTMGNIQIRLPKLEEQKRISIVFRVLQRLWTVHNSLLTEYTKQEQYLLSQMFILEHHHHHH | failed
MFPSFITHIQSPNSHHHYSSPSFPFSSDFLESFDESFLINQFLLQQQDVAANVVESPWKFCKKLELKKKNEKCVDGSTSQEVQWRRTVKKRDRHSKICTAQGPRDRRMRLSLQIARKFFDLQDMLGFDKASKTIEWLFSKSKTSIKQLKERVAASEGGGKDEHLQVDEKEKDETLKLRVSKRRTKTMESSFKTKESRERARKRARERTMAKMKMRLFETSETISDPHQETREIKITNGVQLLEKENKEQEWSNTNDVHMVEYQMDSVSIIEKFLGLTSDSSSSSIFGDSEECYTSLSSVRGTISAAGNSNVLTKNPN | failed
MLTLILAQVTTLDPARPQAEAVLAGGGRVLAVGTREELSALAPRAEVLDHRDLHLTPGLCDAHTHLVMYGASLSQLDVQGVRSVDEVRARLRERAAQTPAGEWIVGGGFLLSELGLSGYPTAADLDAVSPDHPVLLHSRDHHMIWVNSRALAAAGIHDQTPDPEGGHIVHPLGCLQENAQALVSERVPAPSESEWLAHARAGAQDLAARGYVSTHTMAFEDAAAPLALQTLAARGELPLRVWACLPHERLSAARSLGLSRVPGGLFQWGGVKFFADGALGSRTAWLHAPGFADGSGTGIALDSPDLILERGREALRLGLTPVTHAIGDRANTEVLDVYEQLRPEAEARGIRLRVEHAQHLRPEDLPRFRGLTASVQPVHLPADAAMIRELLPQREQTSYAFRSLKDAGAILAFGSDAPVAPPSVQGNFAAAVSRLGDDGLPLAPAEALTPDDVLWAYTRGPALAAGWDDEGWVKPGARAAFTLWNTIGGEARSLVL | failed
MSLRGELRVGLEPGYLPFEMKDKKGNVIGFDVDLAREMAKAMGVKLKLVPTSWDGLIPGLVTEKFDIIISGMTISQERNLRVNFVEPYIVVGQSLLVKKGLEKGVKSYKDLDKPELTLVTKFGVSAEYAAKRLFKNAKLKTYDTEAEAVQEVLNGKADMFIFDLPFNVAFMAQKGQGYLVHLDTSLTYEPLGWAIKKGDPDFLNWLNHFLAQIKHDGSYDELYERWFVDTKWLEKIQEGHHHHHH | not failed
MKTTLLKTLTPELHLVQHNDIPVPSLKTCGWNTKNFPCKGHSLSVGXPQNAKQDVLWLSEVEPFKNGNAIRGGVPICYPWFGGVKQPAHGTARIRLWQLSHYYISVHKVRLEFELFSDLNIIEAKVSMVFTDKCHLTFTHYGEESAQAALHTYFNIGDINQVEVQGLPETCFNSLNQQQENVPSPRHISENVDCIYSAENMQNQILDKSFNRTIALHHHNASQFVLWNPWHKKTSGMSETGYQKMLCLETARIHHLLEFGESLSVEISLKG | not failed
MPHSSTNITKAVLQGRGLYPISLVTGAMFTEEMYVVLESTTRAETFLTPMELQAKLMEYLTGTEVSLSPDLLALPDVESRAQYLMTTACELQLANGGYLQWYAVRLEKLEHHHHHH | not failed
MPQGKWFRFGYGIVLVLLIIYLGSLVDWIFRPIVVFVQTLFAPVIIAGILYYLFRPIVGLLSKKMNRGLSILILFLMIIGAFTAFSLIVGPELQRQFQSLYNNLPTLINQVRDTFIALQSNELFNRFQESETFQPEEMISRFVNSLNDIIGTIGANITGFIGALANFFIILVLVPFILFYLLKEGEKLPVQLLKLFNKKQQHEGRLILADMDKMLSSYIQGQIIVSFCVGILCYIAYLIIGLDYALILALVAMFTNVIPFVGPWIGTFPAVIVAFIDSPLTALIVVIVVVVIQQIESNLISPQVMGKKLAIHPITIIFILLVAGRFAGVVGMLLAVPTYAVGKVIVTHSYRLWKLRKQPVE | failed
MILSAEQSFTLRHPHGQAAALAFVREPAAALAGVRFLRGLDSDGEQVWGELLVTVPLLGEVDLPFRSEIVRTPQGAELRPLTLTGERAWVAVSGQATAAEGGEMAFAFQFQAHLATPEAEGWGGAAFEKMVQAAAGRTLERVAKALPEGLAAGLPPA | not failed
MKTSVKFETIFPLTTAPLIQCITNEITCESMANALLYIDAKPIMADDPREFPQMFQQTSALVLNLGHLSQEREQSLLAASDYARQVNKLTVVDLVGYGASDIRNEVGEKLVHNQPTVVKGNLSEMRTFCQLVSHGRGVDGSPLDQSEEAIEELIQALRQQTQKFPQTVFLATGIQDVLVSQEQVIVLQNGVPELDCFTGTGDLVGALVAALLGEGNAPMTAAVAAVSYFNLCGEKAKTKSQGLADFRQNTLNQLSLLMKEKDWFEAVKGRVL | not failed
MGLPNLSRFREKCCYCYRSIGDGISVCDCGFSFCEKHRGIHLGKSGCRIVFDIKEVGSDLGIEIKNAMLGEEEVEELRRRMEILIKPGDEDERVLSRDEEVRCVHGCPEGPSSIEMGNIGGLKCNLCDVKTRLWVCFSCGYVGCGRMQYGAEGNGHAKSHYEETQHNVFVLVPSLLKEDCEIFCYLCDSNIRSRYNSAENSVTIDFGGADGKTEERSVRKVMSCRGIAEPEFLEKKRAPESKGESVPSPYVGIINSGNTCYISSVIHMVGYAVSKEEFDLEQHFEICYMKNPLECFFCQLMRVLSKMKETKDNEGVNRISILDLIMLIWRDMPMFGKFAQQDAHEFLLFLLEKIREGERSYLIPPITSLFEFEVGRRVSCSGCMDDSTSYESMLMICTFLKGNIRKSVEMFFLPDEWSCECGGKKKVSRFITTLPKYLIIQVGRYSYNNYKVEKIKDKIEMRSIKLGSFMSKDEADRSLVRKLVDSGYPEEDAAKALGIFWNDESKARSLLENHAMMDMRTDSKYRVVGCINHSGDNIKAGHYTWWVYDNGKCFKIDDTTVLNSNVEVLEDGYIFLFK | failed
MDDLASQSFPEPERAIMKATYQVLCEYGYADLTIQQIADEYGKTTTAVHYHCDTKNKLLTAFLDYLLEELADSVHNIRTTNPENRLKFLLDELLVKSKNEPVLSIALLEMQSQTPYKEPFRERFKQMAVVNRQTELDFTVSETA | failed
MAADKLADEVACMANTPGGGALIVGIEDKTGRIIGTELDIDWLRQGIFTRIDVAPDVVAKRVLGQRVLAIYVAAAAEPIEDTSDRLRWRVGDSCRPVDLEHHHHHH | failed
